# Test results taken from patent publication US20230374534A1 (INDUSTRY ACADEMIC COOPERATION FOUNDATION GYEONGSANG …, published 2023).
# B1: Trx-h2, endogenous protein in Arabidopsis plants (enzyme)
# chain: GGALSTVFGSGEDATAAGTESEPSRVLKFSSSARWQLHFNEIKESNKLLVVDFSASWCGPCRMIEPAIHAMADKFNDVDFVKLDVDELPDVAKEFNVTAMPTFVLVKRGKEIERIIGAKKDELEKKVSKLRA
# modifications: myristoylated at Gly2 at 22 °C; demyristoylated at 4 °C
# notes: Native Trx-h2 that co-precipitated with CBF-Myc from plant extracts (IP/mass spectrometry and Co-IP); also called thioredoxin h2
# B2: Trx-h3 (control) in the BiFC assay (enzyme, Arabidopsis, UniProt Q42403 2-118, looked up)
# chain: AAEGEVIACHTVEDWTEKLKAANESKKLIVIDFTATWCPPCRFIAPVFADLAKKHLDVVFFKVDVDELNTVAEEFKVQAMPTFIFMKEGEIKETVVGAAKEEIIANLEKHKTVVAAA
# notes: BiFC control; The YFP fragment fused to it is not described
# Key:
# [1] = target: T1, CBF1-Myc (from CBF1-Myc^OE Arabidopsis plants) (Arabidopsis thaliana, UniProt P93835 1-213); experiment: anti-Myc immunoprecipitation from CBF1-Myc^OE plants (4 °C, 6 h), then MALDI-TOF/TOF mass spectrometry
# T1 construct: Overexpressed in Arabidopsis under the CaMV 35S promoter; The tag is placed C-terminal because of the name CBF1-Myc; also called CBF-Myc; CBFs-Myc; not shown: Myc tag
# Experimental: To identify the interacting partners of CBF1 in Arabidopsis, total proteins (100 mg) were extracted from 2-week-old CBF1-Myc^OE seedlings exposed to 4° C. for 6 h, and immunoprecipitated using an anti-Myc agarose (Sigma-Aldrich, St. Louis, MO, USA). The CBF1-My c-interacting proteins were washed three times at 4° C. with a buffer containing 50 mM Tris-HCl (pH 7.5), 150 mM NaCl, 1 mM EDTA, 1 mM DTT, and 0.1% NP40. The purified proteins were mixed with SDS-PAGE loading dye, heated at 90° C. for 5 min, and separated by SDS-PAGE. Proteins were identified by matrix assisted laser desorption/ionization-time of flight (MALDI-TOF)/TOF-mass spectrometry.
# [2] = target: T2, YC-CBF1 (CBF1 fused to the C-terminal fragment of YFP) (Arabidopsis thaliana, UniProt P93835 1-213); experiment: BiFC in Nicotiana benthamiana leaves at 4 °C (FIG. 6D)
# T2 construct: BiFC construct expressed in Nicotiana benthamiana leaves; also called YC-CBFs; not shown: C-terminal fragment of YFP (YC)
# Experimental: Interaction between Trx-h2 and CBFs under specific conditions was analyzed using the BiFC assay. Trx-h2 and CBFs were cloned individually into the gateway BiFC-binary vector, pDONR221, to generate pDONR221: Trx-h2 and pDONR221: CBF plasmids, respectively. The Trx-h2-YN plasmid was generated by fusing Trx-h2 with the N-terminal fragment of YFP (YN), while the YC-CBF plasmids were constructed by fusing each of the three CBFs with the C-terminal fragment of YFP (YC). These plasmids were introduced into A. tumefaciens strain GV3101, and the transformed cells were used to infiltrate the leaves of 4-week-old N. benthamiana plants. These plants were incubated at 26° C. for 2 days and then exposed to 4° C. for 6 h. Fluorescence signals generated by YFP were analyzed under a confocal microscope using the FV10-ASW 3.1 software.
# T2 sequence (P93835 whole entry, the tested form may be a part): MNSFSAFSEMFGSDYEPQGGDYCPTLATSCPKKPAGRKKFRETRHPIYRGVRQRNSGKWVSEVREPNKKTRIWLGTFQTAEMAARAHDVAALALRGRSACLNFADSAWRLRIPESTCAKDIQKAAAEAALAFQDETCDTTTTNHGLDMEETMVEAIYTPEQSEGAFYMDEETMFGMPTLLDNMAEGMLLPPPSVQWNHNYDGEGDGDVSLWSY
# T1 sequence (P93835 whole entry): as the sequence (P93835 whole entry, the tested form may be a part) above
binder,measurement,setting,value
B1,binding result,[1],binds
B2,binding result,[2],no binding
